Test [1] deals with T1, mFcγRIIb (Mus musculus, UniProt P08101).
T1 construct: extracellular region, C-terminal His- and GST-tag; also called mouse FcγRII
T1 sequence (receptor extracellular region, looked up): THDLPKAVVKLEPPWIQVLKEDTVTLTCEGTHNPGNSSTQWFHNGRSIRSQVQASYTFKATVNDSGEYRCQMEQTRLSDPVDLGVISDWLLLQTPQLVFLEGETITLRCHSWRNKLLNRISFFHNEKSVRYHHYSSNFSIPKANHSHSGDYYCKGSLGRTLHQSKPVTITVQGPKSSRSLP
The test can be described thus: SPR, Kd. The procedure:
(§1) Variants were screened for receptor affinity using Biacore™ technology, also referred to as Biacore herein, a surface plasmon resonance (SPR) based technology for studying biomolecular interactions in real time. SPR measurements were performed using a Biacore 3000 instrument (Biacore, Piscataway, N.J.). A protein A/G (Pierce Biotechnology) CM5 biosensor chip (Biacore) was generated using a standard primary amine coupling protocol. All measurements were performed using HBS-EP buffer (10 mM HEPES pH 7.4, 0.15 M NaCl, 3 mM EDTA, 0.005% vol/vol surfactant P20, Biacore). Antibodies at 20 nM or 50 nM in HBS-EP buffer were immobilized on the protein A/G surface and FcγRs were injected. After each cycle, the surface was regenerated by injecting glycine buffer (10 mM, pH 1.5). Data were processed by zeroing time and response before the injection of FcγR and by subtracting appropriate nonspecific signals (response of reference channel and injection of running buffer). Kinetic analyses were performed by global fitting of binding data with a 1:1 Langmuir binding model using BIAevaluation software (Biacore).
(§2) Variant antibodies were tested for their affinity to mouse or cynologous monkey FcγRs using Biacore SPR as described above. Specifically, antibodies were first immobilized on a protein A/G chip to high density, and then followed by injections of the extracellular domain of the mouse or cynologous monkey FcγR of interest. Both association and dissociation phases were tracked in real time using the Biacore technology.

For test [2], the target named is T2, cynoFcγRIIb (Macaca fascicularis, UniProt A0A140HDP4).
T2 construct: extracellular region, C-terminal His- and GST-tag; also called cynomolgus monkey FcγRIIb
T2 sequence (receptor extracellular region): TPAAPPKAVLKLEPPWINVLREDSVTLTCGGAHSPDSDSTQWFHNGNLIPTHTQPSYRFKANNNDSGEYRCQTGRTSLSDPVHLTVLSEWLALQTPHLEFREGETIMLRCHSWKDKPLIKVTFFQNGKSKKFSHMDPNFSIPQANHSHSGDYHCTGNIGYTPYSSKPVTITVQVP
As to the kind of experiment: SPR, Kd. The procedure: as §1, §2

In test [3] the target is T3, human FcγRIIb receptor protein (R&D Systems) (human, UniProt P31994 46-217).
T3 construct: Bought protein injected over captured antibody in Biacore; also called CD32b
T3 sequence (looked up): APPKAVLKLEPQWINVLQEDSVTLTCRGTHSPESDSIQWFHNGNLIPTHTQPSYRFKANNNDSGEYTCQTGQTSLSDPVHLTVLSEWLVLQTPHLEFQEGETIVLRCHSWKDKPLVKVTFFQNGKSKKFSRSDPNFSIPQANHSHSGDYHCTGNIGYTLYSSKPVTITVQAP
As to the kind of experiment: SPR.

Test [4] concerns the target T4, human FcγRIIa (131R), His- and GST-tagged (human, UniProt P12318 34-217).
T4 construct: Expressed in HEK293T cells, purified by nickel chromatography; also called R131 FcγRIIa; not shown: 6xHis and GST tags of the pTT5 vector
T4 sequence (looked up): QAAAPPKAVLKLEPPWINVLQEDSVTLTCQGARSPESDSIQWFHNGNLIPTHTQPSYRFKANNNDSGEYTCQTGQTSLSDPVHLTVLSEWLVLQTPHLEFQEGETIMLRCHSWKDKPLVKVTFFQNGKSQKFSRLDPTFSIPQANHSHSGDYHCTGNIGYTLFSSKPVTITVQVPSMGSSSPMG
The test can be described thus: SPR.

The target in test [5] is T5, human FcγRI receptor protein (R&D Systems) (human, UniProt P12314 16-288).
T5 construct: also called soluble FcγRI; solFcγRI
T5 sequence (P12314 16-288 limits assumed): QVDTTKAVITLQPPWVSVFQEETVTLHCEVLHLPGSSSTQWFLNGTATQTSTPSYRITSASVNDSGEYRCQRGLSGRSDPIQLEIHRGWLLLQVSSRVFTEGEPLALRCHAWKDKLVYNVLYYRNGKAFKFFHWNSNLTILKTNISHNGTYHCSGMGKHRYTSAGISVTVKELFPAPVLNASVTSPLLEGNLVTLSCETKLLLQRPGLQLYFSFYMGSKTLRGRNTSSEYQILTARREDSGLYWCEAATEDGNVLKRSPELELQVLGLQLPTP
As to the kind of experiment: SPR.

For test [6], the target named is T6, human FcγRIIIa (158V), His- and GST-tagged (human, UniProt P08637 17-208).
T6 construct: also called V158 FcγRIIIa; VIIIa; not shown: 6xHis and GST tags of the pTT5 vector
T6 sequence (P08637 17-208 F176V): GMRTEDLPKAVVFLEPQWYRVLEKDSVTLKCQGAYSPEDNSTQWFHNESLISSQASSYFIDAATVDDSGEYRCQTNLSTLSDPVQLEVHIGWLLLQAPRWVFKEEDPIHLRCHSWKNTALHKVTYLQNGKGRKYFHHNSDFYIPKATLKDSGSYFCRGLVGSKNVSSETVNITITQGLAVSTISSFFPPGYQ
As to the kind of experiment: SPR.

The target in test [7] is T7, human FcγRIIa (131H), His- and GST-tagged (human, UniProt P12318 34-217).
T7 construct: also called H131 FcγRIIa; HIIa; not shown: 6xHis and GST tags of the pTT5 vector
T7 sequence (looked up): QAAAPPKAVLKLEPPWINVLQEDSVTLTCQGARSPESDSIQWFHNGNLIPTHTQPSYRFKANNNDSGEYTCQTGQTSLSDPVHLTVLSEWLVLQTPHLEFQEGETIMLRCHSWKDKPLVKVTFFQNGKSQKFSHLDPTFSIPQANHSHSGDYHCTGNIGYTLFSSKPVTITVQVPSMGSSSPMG
As to the kind of experiment: SPR.

For test [8], the target named is T8, human FcγRIIb on cells (transfected HEK293T cells; primary human B cells) (human, UniProt P31994 43-310).
T8 construct: whole, on cells; also called CD32b
T8 sequence (looked up): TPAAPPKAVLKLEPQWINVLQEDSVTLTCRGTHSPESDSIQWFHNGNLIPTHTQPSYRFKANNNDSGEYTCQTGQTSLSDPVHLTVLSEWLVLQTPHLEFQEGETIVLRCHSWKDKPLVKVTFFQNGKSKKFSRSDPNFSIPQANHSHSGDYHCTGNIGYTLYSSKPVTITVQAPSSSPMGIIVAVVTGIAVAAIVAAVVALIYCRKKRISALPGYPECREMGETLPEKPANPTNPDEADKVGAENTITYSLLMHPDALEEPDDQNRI
The test can be described thus: flow cytometry on FcγRIIb-transfected 293T cells [middle left panel]. The procedure: In order to validate the Biacore data and evaluate receptor binding of the variants on the cell surface, binding of select antibodies to cells expressing FcγRIIb was measured. […] HEK293T cells in DMEM with 10% FBS were transfected with human FcγRIIb cDNA in pCMV6 expression vector (Origene Technologies, Rockville, Md.), cultured for 3 days, harvested, washed twice in PBS, resuspended in PBS with 0.1% BSA (PBS/BSA), and aliquoted at 2×10^5 cells per well into 96-well microtiter plates. Fc variant antibodies were serially diluted in PBS/BSA then added to the cells and incubated with mixing for 1 h at room temperature. After extensive washing with PBS/BSA, phycoerythrin (PE)-labeled anti-human-Fab-specific goat F(ab′)2 fragment was added for detection. Cells were incubated for 30 min at room temperature, washed, and resuspended in PBS/BSA. Binding was evaluated using a FACSCanto II flow cytometer (BD Biosciences, San Jose, Calif.), and the mean fluorescence intensity (MFI) was plotted as a function of antibody concentration using Graph Pad Prism software (GraphPad Software, San Diego, Calif.) from which half-maximal binding (EC50) values were determined by sigmoidal dose response modeling.

The next test addresses T9, mFcγRIV.
T9 construct: also called mouse FcγRIV; not shown: C-terminal His and GST tags (named only on our card)
T9 chain: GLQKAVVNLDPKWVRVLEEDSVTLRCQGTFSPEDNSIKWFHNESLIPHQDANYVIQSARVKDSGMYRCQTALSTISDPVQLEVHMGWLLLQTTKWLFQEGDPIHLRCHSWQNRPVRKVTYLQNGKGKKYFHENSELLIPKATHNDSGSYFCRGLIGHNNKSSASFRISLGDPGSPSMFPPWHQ
As to the kind of experiment: SPR.

In test [9] the target is T1, mFcγRIIb. As to the kind of experiment: SPR.
The target in test [10] is T2, cynoFcγRIIb. As to the kind of experiment: SPR.
The next test concerns the target T10, cynoFcγRIIIa (Macaca fascicularis, UniProt Q8SPW2).
T10 construct: extracellular region, C-terminal His- and GST-tag; also called cynomolgus monkey FcγRIIIa
As to the kind of experiment: SPR.

Five molecules from patent US20130315910A1 (Xencor, published 2013) can be followed below.
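For Fold vs WT IgG1 (off-rate) in this document: fold improvement over WT IgG1 so higher means slower dissociation than WT.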

T10 sequence (Q8SPW2 17-208): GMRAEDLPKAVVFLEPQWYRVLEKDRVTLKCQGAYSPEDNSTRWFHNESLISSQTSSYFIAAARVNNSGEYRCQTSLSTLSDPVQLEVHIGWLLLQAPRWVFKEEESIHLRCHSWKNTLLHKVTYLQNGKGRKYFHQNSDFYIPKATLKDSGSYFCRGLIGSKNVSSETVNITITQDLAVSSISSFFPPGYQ

B1: L234D/G236N/S267E (antibody, human IgG1, kappa)
heavy: EVQLVESGGGLVKPGGSLKLSCAASGYTFTSYVMHWVRQAPGKGLEWIGYINPYNDGTKYNEKFQGRVTISSDKSISTAYMELSSLRSEDTAMYYCARGTYYYGTRVFDYWGQGTLVTVSSASTKGPSVFPLAPSSKSTSGGTAALGCLVKDYFPEPVTVSWNSGALTSGVHTFPAVLQSSGLYSLSSVVTVPSSSLGTQTYICNVNHKPSNTKVDKKVEPKSCDKTHTCPPCPAPEDLNGPSVFLFPPKPKDTLMISRTPEVTCVVVDVEHEDPEVKFNWYVDGVEVHNAKTKPREEQYNSTYRVVSVLTVLHQDWLNGKEYKCKVSNKALPAPIEKTISKAKGQPREPQVYTLPPSREEMTKNQVSLTCLVKGFYPSDIAVEWESNGQPENNYKTTPPVLDSDGSFFLYSKLTVDKSRWQQGNVFSCSVMHEALHNHYTQKSLSLSPGK
light: DIVMTQSPATLSLSPGERATLSCRSSKSLQNVNGNTYLYWFQQKPGQSPQLLIYRMSNLNSGVPDRFSGSGSGTEFTLTISSLEPEDFAVYYCMQHLEYPITFGAGTKLEIKRTVAAPSVFIFPPSDEQLKSGTASVVCLLNNFYPREAKVQWKVDNALQSGNSQESVTEQDSKDSTYSLSSTLTLSKADYEKHKVYACEVTHQGLSSPVTKSFNRGEC
notes: HuAM4G7 anti-CD19 IgG1 (m1) with these Fc substitutions, EU index; copies: 2 + 2
Consider B1, for which the binding result with mFcγRIIb [1] and in the test with cynoFcγRIIb [2] was “no binding” in each case. In addition, the entries for the “Fold vs WT IgG1” value in test [3] and in [4] were 5.11 fold and 0.728 fold, respectively. The Kd in test [3] was found to be 287 nM; in test [4], 1180 nM.

B2: S267E/A327E (antibody, human IgG1, kappa)
heavy: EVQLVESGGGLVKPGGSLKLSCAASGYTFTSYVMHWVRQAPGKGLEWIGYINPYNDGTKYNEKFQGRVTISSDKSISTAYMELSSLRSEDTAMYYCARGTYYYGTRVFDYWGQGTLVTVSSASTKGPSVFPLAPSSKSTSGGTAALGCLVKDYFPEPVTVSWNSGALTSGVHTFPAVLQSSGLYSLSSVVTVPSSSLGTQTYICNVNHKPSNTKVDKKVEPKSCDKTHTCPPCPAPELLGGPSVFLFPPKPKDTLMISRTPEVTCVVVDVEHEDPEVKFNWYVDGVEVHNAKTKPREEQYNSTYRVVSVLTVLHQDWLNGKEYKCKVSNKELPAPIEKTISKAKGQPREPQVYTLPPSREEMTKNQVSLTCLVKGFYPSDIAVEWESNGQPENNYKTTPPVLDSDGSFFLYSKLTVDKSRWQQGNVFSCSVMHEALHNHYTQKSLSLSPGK
light: DIVMTQSPATLSLSPGERATLSCRSSKSLQNVNGNTYLYWFQQKPGQSPQLLIYRMSNLNSGVPDRFSGSGSGTEFTLTISSLEPEDFAVYYCMQHLEYPITFGAGTKLEIKRTVAAPSVFIFPPSDEQLKSGTASVVCLLNNFYPREAKVQWKVDNALQSGNSQESVTEQDSKDSTYSLSSTLTLSKADYEKHKVYACEVTHQGLSSPVTKSFNRGEC
notes: as for B1
Regarding B2, the “Fold vs WT IgG1” value in test [3] turned out to be 30.9 fold; in [5], 2.3 fold; in test [6], 0.00894 fold; in [7] it was 2.66 fold; in [4], 29.3 fold. The Kd in [3] worked out at 47.5 nM; in [5], 0.143 nM; in [6], 21400 nM; in [7], 243 nM; in [4] it was 29.3 nM. For the same molecule, the 50% effective concentration (EC50 (read off the curve)) in [8] is roughly 10 ng/mL. Besides, the “Fold vs WT IgG1 (off-rate)” value in the test with mFcγRIV was found to be 1.04 fold; with mFcγRIIb [9], 2.8 fold; with cynoFcγRIIb [10], 1.03 fold; with cynoFcγRIIIa, 0.465 fold.

B3: G236A/G237A (antibody, human IgG1, kappa)
heavy: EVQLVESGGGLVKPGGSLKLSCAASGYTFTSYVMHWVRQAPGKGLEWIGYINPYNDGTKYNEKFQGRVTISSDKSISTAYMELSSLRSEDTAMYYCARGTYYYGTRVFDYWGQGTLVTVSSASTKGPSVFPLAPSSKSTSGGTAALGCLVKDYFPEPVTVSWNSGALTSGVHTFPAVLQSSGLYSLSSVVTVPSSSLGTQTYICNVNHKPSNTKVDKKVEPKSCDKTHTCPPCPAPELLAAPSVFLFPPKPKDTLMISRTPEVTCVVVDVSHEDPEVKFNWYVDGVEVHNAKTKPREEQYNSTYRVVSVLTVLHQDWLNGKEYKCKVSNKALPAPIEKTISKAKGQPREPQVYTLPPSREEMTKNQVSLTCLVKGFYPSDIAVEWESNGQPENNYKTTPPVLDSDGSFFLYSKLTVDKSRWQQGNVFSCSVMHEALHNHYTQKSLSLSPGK
light: DIVMTQSPATLSLSPGERATLSCRSSKSLQNVNGNTYLYWFQQKPGQSPQLLIYRMSNLNSGVPDRFSGSGSGTEFTLTISSLEPEDFAVYYCMQHLEYPITFGAGTKLEIKRTVAAPSVFIFPPSDEQLKSGTASVVCLLNNFYPREAKVQWKVDNALQSGNSQESVTEQDSKDSTYSLSSTLTLSKADYEKHKVYACEVTHQGLSSPVTKSFNRGEC
notes: as for B1
Take B3: the binding result with mFcγRIIb [1] and in the test with cynoFcγRIIb [2] was “no binding” each time. For the same molecule, the “Fold vs WT IgG1” value in [3] turned out to be 0.0578 fold. The dissociation constant (Kd) in [3] stood at 25400 nM.

B4: A327L (antibody, human IgG1, kappa)
heavy: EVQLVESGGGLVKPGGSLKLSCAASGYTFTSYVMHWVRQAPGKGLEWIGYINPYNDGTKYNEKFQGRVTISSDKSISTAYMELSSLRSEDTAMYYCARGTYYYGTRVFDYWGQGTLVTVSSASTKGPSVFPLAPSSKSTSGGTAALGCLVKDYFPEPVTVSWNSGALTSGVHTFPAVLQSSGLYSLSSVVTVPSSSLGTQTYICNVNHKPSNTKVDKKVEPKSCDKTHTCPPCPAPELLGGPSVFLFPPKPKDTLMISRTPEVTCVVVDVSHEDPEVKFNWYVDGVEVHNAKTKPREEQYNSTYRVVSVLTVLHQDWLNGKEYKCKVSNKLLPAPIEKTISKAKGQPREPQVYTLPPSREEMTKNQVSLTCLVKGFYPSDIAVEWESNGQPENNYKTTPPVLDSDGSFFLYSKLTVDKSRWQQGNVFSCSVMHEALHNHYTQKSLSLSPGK
light: DIVMTQSPATLSLSPGERATLSCRSSKSLQNVNGNTYLYWFQQKPGQSPQLLIYRMSNLNSGVPDRFSGSGSGTEFTLTISSLEPEDFAVYYCMQHLEYPITFGAGTKLEIKRTVAAPSVFIFPPSDEQLKSGTASVVCLLNNFYPREAKVQWKVDNALQSGNSQESVTEQDSKDSTYSLSSTLTLSKADYEKHKVYACEVTHQGLSSPVTKSFNRGEC
notes: HuAM4G7 anti-CD19 IgG1 (m1) with this Fc substitution, EU index; copies: 2 + 2
Consider B4, for which the binding result (with mFcγRIIb [1]; with cynoFcγRIIb [2]; in [3]) was “no binding” each time.

B5: G236S/G237A (antibody, human IgG1, kappa)
heavy: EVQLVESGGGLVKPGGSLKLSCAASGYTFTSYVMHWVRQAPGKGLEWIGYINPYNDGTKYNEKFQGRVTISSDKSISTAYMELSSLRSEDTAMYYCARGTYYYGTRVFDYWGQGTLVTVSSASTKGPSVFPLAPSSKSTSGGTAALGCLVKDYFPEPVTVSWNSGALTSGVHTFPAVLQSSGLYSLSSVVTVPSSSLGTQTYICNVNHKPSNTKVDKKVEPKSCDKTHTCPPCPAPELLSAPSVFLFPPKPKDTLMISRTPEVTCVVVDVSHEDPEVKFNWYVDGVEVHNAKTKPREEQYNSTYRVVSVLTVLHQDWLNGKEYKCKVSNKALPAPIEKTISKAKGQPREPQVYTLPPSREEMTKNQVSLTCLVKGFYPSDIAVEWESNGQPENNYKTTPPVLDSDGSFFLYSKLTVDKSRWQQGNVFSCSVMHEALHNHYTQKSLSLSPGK
light: DIVMTQSPATLSLSPGERATLSCRSSKSLQNVNGNTYLYWFQQKPGQSPQLLIYRMSNLNSGVPDRFSGSGSGTEFTLTISSLEPEDFAVYYCMQHLEYPITFGAGTKLEIKRTVAAPSVFIFPPSDEQLKSGTASVVCLLNNFYPREAKVQWKVDNALQSGNSQESVTEQDSKDSTYSLSSTLTLSKADYEKHKVYACEVTHQGLSSPVTKSFNRGEC
notes: as for B1
B5: the binding result with mFcγRIIb [1] is reported as “no binding”. Also, the binding result in the test with cynoFcγRIIb [2] is recorded as “no binding”. For the same molecule, in test [3], the “Fold vs WT IgG1” value was 0.0797 fold and the Kd was 18400 nM.
